Measurements: patent US20050260212A1 (PDL BIOPHARMA, published 2005)

Target: T1, human LFL2-Fc fusion protein (human, UniProt P01857-1 99-330 = IgG part, limits assumed)
T1 construct: domain: constant region of the human gamma 1 immunoglobulin heavy chain; In-frame fusion of the LFL2 extracellular domain with the human gamma 1 constant region; GenBank NP-570843.1 is printed for LFL2/LRRC15
Test: SPR (BIAcore 3000), mAb immobilised on CM5, LFL2-Fc analyte, bivalent analyte model
Method: Kinetics measurements between human LFL2-Fc fusion protein and anti-LFL2 mAbs were performed using BIAcore 3000™ (BIAcore™, Sweden). Anti-LFL2 mAbs were immobilized with 100 RUs on Research-grade CM5 sensor chip by the BIAcore amine coupling reagents (N-ethyl-N′-dimethylaminopropylcarbodiimide, EDC; N-hydroxysuccinimide, NHS; and ethanolamine HCl, pH8.5). Assays were run at a flow rate of 30 ul/min at room temperature. Three-minute association phase of each LFL2-Fc was followed by ten-minute injection of running buffer (10 mM Hepes, 300 mM sodium chloride, 3 mM EDTA, 0.05% P-20, pH7.4) to monitor dissociation. The mAb surface was regenerated with 25 mM NaOH. […] Double referencing was applied in each analysis to eliminate background responses from reference surface and buffer only control. The affinity (KD) of binding was obtained by simultaneously fitting the association and dissociation phases of the sensorgram from the analyte concentration series using the bivalent analyte model from BIAevaluate software.

T1 sequence (P01857 other isoform, or with tags, fused parts or gaps limits assumed): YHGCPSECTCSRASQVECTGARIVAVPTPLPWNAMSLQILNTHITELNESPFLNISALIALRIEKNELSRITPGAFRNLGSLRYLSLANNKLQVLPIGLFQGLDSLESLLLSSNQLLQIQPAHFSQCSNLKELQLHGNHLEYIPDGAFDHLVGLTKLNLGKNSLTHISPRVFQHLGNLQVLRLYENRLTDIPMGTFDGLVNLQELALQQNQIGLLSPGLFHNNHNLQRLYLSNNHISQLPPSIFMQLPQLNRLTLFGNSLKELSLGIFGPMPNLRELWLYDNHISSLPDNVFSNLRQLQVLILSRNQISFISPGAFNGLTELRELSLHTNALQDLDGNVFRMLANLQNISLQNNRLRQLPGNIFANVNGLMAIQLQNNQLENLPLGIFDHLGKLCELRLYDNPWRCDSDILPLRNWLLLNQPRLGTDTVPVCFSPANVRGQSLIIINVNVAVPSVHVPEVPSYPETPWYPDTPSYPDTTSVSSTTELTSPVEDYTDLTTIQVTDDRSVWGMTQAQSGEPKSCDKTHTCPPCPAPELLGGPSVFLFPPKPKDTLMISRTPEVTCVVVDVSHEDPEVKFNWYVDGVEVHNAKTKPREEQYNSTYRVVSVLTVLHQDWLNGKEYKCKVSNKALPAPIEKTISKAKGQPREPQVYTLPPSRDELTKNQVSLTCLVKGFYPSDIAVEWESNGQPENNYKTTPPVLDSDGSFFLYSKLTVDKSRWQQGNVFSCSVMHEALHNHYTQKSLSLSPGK

B1: anti-LFL2 mAb M25 (antibody, V domains shown)
VH: QVQLQQSGAELMKPGASVKISCKATGYKFSSYWIEWVKQRPGHGLEWIGEILPGSDTTNYNEKFKDKATFTSDTSSNTAYMQLSSLTSEDSAVYYCARDRGNYRAWFGYWGQGTLVTVS
VL: DIQMTQTSSLSASLGDRVTISCRASQDISNYLNWYQQKPDGTVKFLIYYTSRLHSGVPSRFSGSGSGTDYSLTISYLEPEDIATYFCQQGEALPWTFGGGTKLEIKR
- Kd: 1.2 nM
